The target of this experiment is Protein phosphatase 1 alpha 7-330 (Homo sapiens, UniProt P62136). Nature of the experiment: ITC. Background: ITC needs no label: the signal is the heat of the interaction.

One molecule from PMC2924587 (2010) can be followed below.

Chain of Protein phosphatase 1 alpha 7-330 (P62136 7-330): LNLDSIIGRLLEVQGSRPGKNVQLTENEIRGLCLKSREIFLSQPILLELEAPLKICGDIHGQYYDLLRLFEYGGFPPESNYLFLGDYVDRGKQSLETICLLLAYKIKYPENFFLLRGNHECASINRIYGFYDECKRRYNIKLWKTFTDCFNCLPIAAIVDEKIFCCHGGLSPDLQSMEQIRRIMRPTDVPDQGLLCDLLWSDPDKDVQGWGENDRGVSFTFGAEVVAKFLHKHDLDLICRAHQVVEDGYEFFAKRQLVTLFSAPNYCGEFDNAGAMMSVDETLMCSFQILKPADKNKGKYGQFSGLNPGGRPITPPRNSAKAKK

B1: Spinophilin 417-583 (protein)
chain: not shown
For orientation: Kd means a measure of binding affinity in units of concentration. High values mean lower affinity, low ones higher affinity. B1 gave a Kd of 8.7 nM.
